Experimental data published in paper PMC4516795 (The Journal of Experimental Medicine, 2015).

B1: parent anti-basigin mAb (antibody, V domains shown)
VH: EVQLQQSGPELVKTGASVKISCKASGYSFSDDYMHWVKQSHGKSLEWIGYISCYNGVPSYNQKFKGKATFTVDTSSSTAYMQFSSLTSEDSAVYYCARGGNHGFYYHAMDYWGQGTSVTVSS
VL: DIVLTQSPAILSVSPGERVSFSCRASQSIGTGIHWYQQRTNGSPRLLIKFASESISGIPSRFSGSGSGTDFTLSINSVESEDIADYFCQQSTSWPYTFGGGTKLEIK
B2: recombinant chimeric anti-basigin antibody Ab-1 (antibody, V domains shown)
VH: EVQLQQSGPELVKTGASVKISCKASGYSFSDDYMHWVKQSHGKSLEWIGYISCYNGVPSYNQKFKGKATFTVDTSSSTAYMQFSSLTSEDSAVYYCARGGNHGFYYHAMDYWGQGTSVTVSS
VL: DIVLTQSPAILSVSPGERVSFSCRASQSIGTGIHWYQQRTNGSPRLLIKFASESISGIPSRFSGSGSGTDFTLSINSVESEDIADYFCQQSTSWPYTFGGGTKLEIK

Target: purified monomeric (gel filtered) recombinant basigin (Homo sapiens, UniProt P35613-2, strain)
Assay: SPR

Binder	Kd [nM]
B1	~4
B2	~4
